ChEMBL document CHEMBL1140664, “Asymmetrical ligand binding by abscisic acid 8'-hydroxylase” (Bioorg Med Chem, 2007)

Substrate: CC1=CC(=O)CC(C)(C)[C@@]1(O)/C=C/C(C)=C\C(=O)O
Assay: Activity of Arabidopsis thaliana recombinant CYP707A3

B1: Abscisic acid 8'-hydroxylase 3 (Arabidopsis thaliana) (protein)
chain: MDFSGLFLTLSAAALFLCLLRFIAGVRRSSSTKLPLPPGTMGYPYVGETFQLYSQDPNVFFAAKQRRYGSVFKTHVLGCPCVMISSPEAAKFVLVTKSHLFKPTFPASKERMLGKQAIFFHQGDYHSKLRKLVLRAFMPDAIRNMVPHIESIAQESLNSWDGTQLNTYQEMKTYTFNVALISILGKDEVYYREDLKRCYYILEKGYNSMPINLPGTLFHKAMKARKELAQILANILSKRRQNPSSHTDLLGSFMEDKAGLTDEQIADNIIGVIFAARDTTASVLTWILKYLADNPTVLEAVTEEQMAIRKDKKEGESLTWEDTKKMPLTYRVIQETLRAATILSFTFREAVEDVEYEGYLIPKGWKVLPLFRNIHHNADIFSDPGKFDPSRFEVAPKPNTFMPFGSGIHSCPGNELAKLEISVLIHHLTTKYRWSIVGPSDGIQYGPFALPQNGLPIALERKP
- Km: 0.71 µM
